In patent US6358897B1, “Alkyl trypsin compositions and methods of use in contact lens cleaning and disinfecting systems” (Alcon Laboratories, Inc., priority 1996, dated 2002):

Key:
Format in all cases: physicochemical
azocasein [1] = experiment: Thermal stability of Me-trypsin and trypsin in a disinfecting solution (Example 5C), azocasein method; details: Example 5C composition, 50 μg/ml
Method: Azocasein Method The following solutions are used in this assay: 1) Buffer solution: 0.05 M sodium phosphate buffer containing 0.9% sodium chloride, pH 7.6. 2) Substrate solution: 2 mg/ml azocasein in the buffer solution mentioned above. The assay is initiated by mixing 1 ml of an appropriately diluted (such that the enzyme activity is in the range of standard curve) enzyme composition in phosphate buffer with 2 ml of azocasein substrate solution (2 mg/ml). After incubation at 37° C. for 20 minutes, the mixture is removed from the incubator and 1 ml of trichloroacetic acid to (14% w/v) is added to stop the enzyme reaction. The mixture is vortexed well and allowed to stand at room temperature for 20 minutes. After centrifuging at 2500 rpm (with a Beckman GS-6R Centrifuge) for 15 minutes, the supernatant is filtered with a serum sampler. 2 ml of the clear yellow filtrate is then adjusted to a neutral pH with 2 ml of 0.5 N sodium hydroxide and the absorbance of 440 nm wavelength light is measured with a spectrophotometer. The amount of azocasein hydrolyzed is calculated based on a standard curve of known concentrations of azocasein solution developed under identical conditions. An enzyme activity unit (“AZ U”) is defined as that amount of enzyme which hydrolyzes 1 μg of azocasein substrate/minute at 37° C. The following is an example of the stability of Me-trypsin in a disinfecting composition of the present invention as compared to an analogous composition containing trypsin. The enzymes were solubilized in the Example 5C composition. The two compositions were incubated at 35° C. or 40° C. At the appointed time, aliquots were tested for enzyme activity by the azocasein method. Activity levels were compared with initial levels and expressed as percent remaining activity.

azocasein [2] = experiment: Stability of Et-trypsin and trypsin in a disinfecting composition (Example 2B), azocasein method; details: 37° C., Example 2B composition, 50 μg/ml
Method: Azocasein Method The following solutions are used in this assay: 1) Buffer solution: 0.05 M sodium phosphate buffer containing 0.9% sodium chloride, pH 7.6. 2) Substrate solution: 2 mg/ml azocasein in the buffer solution mentioned above. The assay is initiated by mixing 1 ml of an appropriately diluted (such that the enzyme activity is in the range of standard curve) enzyme composition in phosphate buffer with 2 ml of azocasein substrate solution (2 mg/ml). After incubation at 37° C. for 20 minutes, the mixture is removed from the incubator and 1 ml of trichloroacetic acid to (14% w/v) is added to stop the enzyme reaction. The mixture is vortexed well and allowed to stand at room temperature for 20 minutes. After centrifuging at 2500 rpm (with a Beckman GS-6R Centrifuge) for 15 minutes, the supernatant is filtered with a serum sampler. 2 ml of the clear yellow filtrate is then adjusted to a neutral pH with 2 ml of 0.5 N sodium hydroxide and the absorbance of 440 nm wavelength light is measured with a spectrophotometer. The amount of azocasein hydrolyzed is calculated based on a standard curve of known concentrations of azocasein solution developed under identical conditions. An enzyme activity unit (“AZ U”) is defined as that amount of enzyme which hydrolyzes 1 μg of azocasein substrate/minute at 37° C. The following is an example of the stability of Et-trypsin or Me-trypsin in a disinfecting composition of the present invention as compared to an analogous composition containing trypsin. The enzymes were solubilized in the Example 2B composition. The compositions were stored at 37° or 50° C. for 8 days or 30 hours, respectively. At various time points, enzyme activity was assayed using the azocasein method.

azocasein [3] = experiment: Stability of Me-trypsin versus other trypsin analogs in a Part I composition (azocasein method); details: for % Activity Remaining: 45° C., 50% L-sorbose 1% borax, pH 5.79 (acetylated trypsin pH 7.54)
Method: Azocasein Method The following solutions are used in this assay: 1) Buffer solution: 0.05 M sodium phosphate buffer containing 0.9% sodium chloride, pH 7.6. 2) Substrate solution: 2 mg/ml azocasein in the buffer solution mentioned above. The assay is initiated by mixing 1 ml of an appropriately diluted (such that the enzyme activity is in the range of standard curve) enzyme composition in phosphate buffer with 2 ml of azocasein substrate solution (2 mg/ml). After incubation at 37° C. for 20 minutes, the mixture is removed from the incubator and 1 ml of trichloroacetic acid to (14% w/v) is added to stop the enzyme reaction. The mixture is vortexed well and allowed to stand at room temperature for 20 minutes. After centrifuging at 2500 rpm (with a Beckman GS-6R Centrifuge) for 15 minutes, the supernatant is filtered with a serum sampler. 2 ml of the clear yellow filtrate is then adjusted to a neutral pH with 2 ml of 0.5 N sodium hydroxide and the absorbance of 440 nm wavelength light is measured with a spectrophotometer. The amount of azocasein hydrolyzed is calculated based on a standard curve of known concentrations of azocasein solution developed under identical conditions. An enzyme activity unit (“AZ U”) is defined as that amount of enzyme which hydrolyzes 1 μg of azocasein substrate/minute at 37° C. […] The enzymes were solubilized in a Part I composition containing 50% (w/v) L-sorbose 1% (w/v) borax (Na2B4O7.10H2O), at pH 5.79, except the acetylated trypsin composition was at pH 7.54. The compositions were stored at 45° C. for 240 hours. At various time points, enzyme activity was assayed using the azocasein method.

Substance | % Activity Remaining (azocasein [1]; 35° C., 24 hrs) | % Activity Remaining (azocasein [1]; 35° C., 48 hrs) | % Activity Remaining (azocasein [1]; 35° C., 72 hrs) | % Activity Remaining (azocasein [1]; 35° C., 168 hrs) | % Activity Remaining (azocasein [1]; 40° C., 24 hrs) | % Activity Remaining (azocasein [1]; 40° C., 114 hrs) | % Activity Remaining (azocasein [1]; 40° C., 168 hrs) | % Activity Remaining (azocasein [3]; 0 Hr.) | % Activity Remaining (azocasein [3]; 64 Hr.) | % Activity Remaining (azocasein [3]; 96 Hr.) | % Activity Remaining (azocasein [3]; 120 Hr.) | % Activity Remaining (azocasein [3]; 144 Hr.) | % Activity Remaining (azocasein [3]; 240 Hr.) | also measured
Trypsin [Native Trypsin, reference compound] | 69.9% | 55.9% | 48.5% | 37.6% | 42.4% | 19.4% | 17.4% | 100.0% | 62.9% | 56.8% | 53.1% | 49.1% | 41.4% | % Activity Remaining (azocasein [2]; 1 Hour): 86.8%; % Activity Remaining (azocasein [2]; 2 Hours): 80.0%; % Activity Remaining (azocasein [2]; 4 Hours): 72.7%; % Activity Remaining (azocasein [2]; 6 Hours): 62.9%; % Activity Remaining (azocasein [2]; 8 Hours): 56.6%; % Activity Remaining (azocasein [2]; 1 day): 37.6%; % Activity Remaining (azocasein [2]; 2 days): 26.8%; % Activity Remaining (azocasein [2]; 4 days): 17.9%; % Activity Remaining (azocasein [2]; 8 days): 11.2%
methyl trypsin [Me-Trypsin] | 97.6% | 96.4% | 91.6% | 87.3% | 88.9% | 75.2% | 67.0% | 100.0% | 89.4% | 86.3% | 84.7% | 82.2% | 76.1% | enzyme stability in a Part I composition over other trypsin related enzyme compositions (azocasein [3]; summary of Table 1): superior enzyme stability
